{"source": "patent US20260116990A1", "key": {"[1]": {"molecular_target": "His-tagged ectodomain of human transferrin receptor 1 (hTfR1, R121-F760) (human) (UniProt P02786)", "sequence (P02786 other isoform, or with tags, fused parts or gaps limits assumed)": "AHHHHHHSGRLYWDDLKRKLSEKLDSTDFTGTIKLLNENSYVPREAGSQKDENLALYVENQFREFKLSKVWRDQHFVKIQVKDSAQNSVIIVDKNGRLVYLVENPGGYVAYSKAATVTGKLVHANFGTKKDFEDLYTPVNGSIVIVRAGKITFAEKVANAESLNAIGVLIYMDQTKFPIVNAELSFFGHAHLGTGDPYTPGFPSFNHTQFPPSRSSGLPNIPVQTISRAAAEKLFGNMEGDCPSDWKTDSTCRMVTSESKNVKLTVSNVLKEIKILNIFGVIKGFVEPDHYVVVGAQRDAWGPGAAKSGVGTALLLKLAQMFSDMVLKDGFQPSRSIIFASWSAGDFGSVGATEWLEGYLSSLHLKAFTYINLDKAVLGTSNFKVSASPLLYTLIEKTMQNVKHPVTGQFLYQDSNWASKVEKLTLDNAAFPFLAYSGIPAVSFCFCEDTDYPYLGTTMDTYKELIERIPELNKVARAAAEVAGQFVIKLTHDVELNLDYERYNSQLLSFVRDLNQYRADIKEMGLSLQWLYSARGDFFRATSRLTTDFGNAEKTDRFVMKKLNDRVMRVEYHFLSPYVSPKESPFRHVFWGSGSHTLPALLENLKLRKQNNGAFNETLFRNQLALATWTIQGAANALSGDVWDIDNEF", "test": "SPR Biacore T200 single-cycle; hTfR1 captured on amine-coupled hTf, binder as analyte; 1:1 model"}, "[2]": {"molecular_target": "His-tagged ectodomain of human transferrin receptor 1 (hTfR1, R121-F760) (human) (UniProt P02786)", "test": "SPR; binder on protein A chip, hTfR1 as analyte, in presence of 250 nM hTf"}, "[3]": {"molecular_target": "His-tagged ectodomain of human transferrin receptor 1 (hTfR1, R121-F760) (human) (UniProt P02786)", "test": "SPR; binder on protein A chip, hTfR1 as analyte, without hTf"}}}
{"substance": "Benchmark antibody 128.1 (BA1), full length human IgG1", "values": [{"measurement": "Kd", "setting": "[1]", "value": 0.0199, "unit": "nM"}, {"measurement": "koff", "setting": "[1]", "value": "5.63e-05", "unit": "s⁻¹"}, {"measurement": "kon", "setting": "[1]", "value": "2.82e+06", "unit": "M⁻¹ s⁻¹"}, {"measurement": "Kd", "setting": "[2]", "value": 0.0834, "unit": "nM"}, {"measurement": "koff", "setting": "[2]", "value": "5.77e-05", "unit": "s⁻¹"}, {"measurement": "kon", "setting": "[2]", "value": 692000, "unit": "M⁻¹ s⁻¹"}, {"measurement": "Kd", "setting": "[3]", "value": 0.101, "unit": "nM"}, {"measurement": "koff", "setting": "[3]", "value": "8.87e-05", "unit": "s⁻¹"}, {"measurement": "kon", "setting": "[3]", "value": 882000, "unit": "M⁻¹ s⁻¹"}]}
